How the values were obtained:
[1] = test system: GFP-14-3-3β and its binding proteins; assay: GFP-14-3-3β co-IP with LC-MS/MS label-free quantification, untreated versus PP1c-treated; set-up: species or system human; conditions: pairwise comparison PP1 vs untreated
GFP-14-3-3β = GFP-14-3-3β co-IP with LC-MS/MS, untreated GFP-14-3-3β versus GFP control (14-3-3 interactome); format: binding, human; conditions: pairwise comparison untreated vs GFP
[2] = log2 difference, label-free quantification, 3 replicates each

Molecule	Difference (log2), PP1 vs untreated [1] [log2]	Difference (log2), untreated vs GFP (GFP-14-3-3β) [log2]	Difference (log2), PP1 vs untreated [1, 2]	Difference (log2), untreated vs GFP (GFP-14-3-3β; [2])
JUP (protein, UniProt P14923 1-745, looked up) Junction plakoglobin: MEVMNLMEQPIKVTEWQQTYTYDSGIHSGANTCVPSVSSKGIMEEDEACGRQYTLKKTTTYTQGVPPSQGDLEYQMSTTARAKRVREAMCPGVSGEDSSLLLATQVEGQATNLQRLAEPSQLLKSAIVHLINYQDDAELATRALPELTKLLNDEDPVVVTKAAMIVNQLSKKEASRRALMGSPQLVAAVVRTMQNTSDLDTARCTTSILHNLSHHREGLLAIFKSGGIPALVRMLSSPVESVLFYAITTLHNLLLYQEGAKMAVRLADGLQKMVPLLNKNNPKFLAITTDCLQLLAYGNQESKLIILANGGPQALVQIMRNYSYEKLLWTTSRVLKVLSVCPSNKPAIVEAGGMQALGKHLTSNSPRLVQNCLWTLRNLSDVATKQEGLESVLKILVNQLSVDDVNVLTCATGTLSNLTCNNSKNKTLVTQNSGVEALIHAILRAGDKDDITEPAVCALRHLTSRHPEAEMAQNSVRLNYGIPAIVKLLNQPNQWPLVKATIGLIRNLALCPANHAPLQEAAVIPRLVQLLVKAHQDAQRHVAAGTQQPYTDGVRMEEIVEGCTGALHILARDPMNRMEIFRLNTIPLFVQLLYSSVENIQRVAAGVLCELAQDKEAADAIDAEGASAPLMELLHSRNEGTATYAAAVLFRISEDKNPDYRKRVSVELTNSLFKHDPAAWEAAQSMIPINEPYGDDMDATYRPMYSSDVPLDPLEMHMDMDGDYPIDTYSDGLRPPYPTADHMLA	0.2305	-0.9623	–	–
TMEM41B (protein, UniProt Q5BJD5 1-291, looked up) Transmembrane protein 41B: MAKGRVAERSQLGAHHTTPVGDGAAGTRGLAAPGSRDHQKEKSWVEAGSARMSLLILVSIFLSAAFVMFLVYKNFPQLSEEERVNMKVPRDMDDAKALGKVLSKYKDTFYVQVLVAYFATYIFLQTFAIPGSIFLSILSGFLYPFPLALFLVCLCSGLGASFCYMLSYLVGRPVVYKYLTEKAVKWSQQVERHREHLINYIIFLRITPFLPNWFINITSPVINVPLKVFFIGTFLGVAPPSFVAIKAGTTLYQLTTAGEAVSWNSIFILMILAVLSILPAIFQKKLKQKFE	0.218	0.8349	–	–
LRRC59 (protein, UniProt Q96AG4 1-307, looked up) Leucine-rich …: MTKAGSKGGNLRDKLDGNELDLSLSDLNEVPVKELAALPKATILDLSCNKLTTLPSDFCGLTHLVKLDLSKNKLQQLPADFGRLVNLQHLDLLNNKLVTLPVSFAQLKNLKWLDLKDNPLDPVLAKVAGDCLDEKQCKQCANKVLQHMKAVQADQERERQRRLEVEREAEKKREAKQRAKEAQERELRKREKAEEKERRRKEYDALKAAKREQEKKPKKEANQAPKSKSGSRPRKPPPRKHTRSWAVLKLLLLLLLFGVAGGLVACRVTELQQQPLCTSVNTIYDNAVQGLRRHEILQWVLQTDSQQ	0.2489	0.4854	–	–
RAI14 (protein, UniProt Q9P0K7 1-980, looked up) Ankycorbin: MKSLKAKFRKSDTNEWNKNDDRLLQAVENGDAEKVASLLGKKGASATKHDSEGKTAFHLAAAKGHVECLRVMITHGVDVTAQDTTGHSALHLAAKNSHHECIRKLLQSKCPAESVDSSGKTALHYAAAQGCLQAVQILCEHKSPINLKDLDGNIPLLLAVQNGHSEICHFLLDHGADVNSRNKSGRTALMLACEIGSSNAVEALIKKGADLNLVDSLGYNALHYSKLSENAGIQSLLLSKISQDADLKTPTKPKQHDQVSKISSERSGTPKKRKAPPPPISPTQLSDVSSPRSITSTPLSGKESVFFAEPPFKAEISSIRENKDRLSDSTTGADSLLDISSEADQQDLLSLLQAKVASLTLHNKELQDKLQAKSPKEAEADLSFDSYHSTQTDLGPSLGKPGETSPPDSKSSPSVLIHSLGKSTTDNDVRIQQLQEILQDLQKRLESSEAERKQLQVELQSRRAELVCLNNTEISENSSDLSQKLKETQSKYEEAMKEVLSVQKQMKLGLVSPESMDNYSHFHELRVTEEEINVLKQDLQNALEESERNKEKVRELEEKLVEREKGTVIKPPVEEYEEMKSSYCSVIENMNKEKAFLFEKYQEAQEEIMKLKDTLKSQMTQEASDEAEDMKEAMNRMIDELNKQVSELSQLYKEAQAELEDYRKRKSLEDVTAEYIHKAEHEKLMQLTNVSRAKAEDALSEMKSQYSKVLNELTQLKQLVDAQKENSVSITEHLQVITTLRTAAKEMEEKISNLKEHLASKEVEVAKLEKQLLEEKAAMTDAMVPRSSYEKLQSSLESEVSVLASKLKESVKEKEKVHSEVVQIRSEVSQVKREKENIQTLLKSKEQEVNELLQKFQQAQEELAEMKRYAESSSKLEEDKDKKINEMSKEVTKLKEALNSLSQLSYSTSSSKRQSQQLEALQQQVKQLQNQLAECKKQHQEVISVYRMHLLYAVQGQMDEDVQKVLKQILTMCKNQSQKK	0.1978	0.7048	–	–
HERC5 (protein, UniProt Q9UII4 1-1024, looked up) E3 ISG15--protein ligase HERC5: MERRSRRKSRRNGRSTAGKAAATQPAKSPGAQLWLFPSAAGLHRALLRRVEVTRQLCCSPGRLAVLERGGAGVQVHQLLAGSGGARTPKCIKLGKNMKIHSVDQGAEHMLILSSDGKPFEYDNYSMKHLRFESILQEKKIIQITCGDYHSLALSKGGELFAWGQNLHGQLGVGRKFPSTTTPQIVEHLAGVPLAQISAGEAHSMALSMSGNIYSWGKNECGQLGLGHTESKDDPSLIEGLDNQKVEFVACGGSHSALLTQDGLLFTFGAGKHGQLGHNSTQNELRPCLVAELVGYRVTQIACGRWHTLAYVSDLGKVFSFGSGKDGQLGNGGTRDQLMPLPVKVSSSEELKLESHTSEKELIMIAGGNQSILLWIKKENSYVNLKRTIPTLNEGTVKRWIADVETKRWQSTKREIQEIFSSPACLTGSFLRKRRTTEMMPVYLDLNKARNIFKELTQKDWITNMITTCLKDNLLKRLPFHSPPQEALEIFFLLPECPMMHISNNWESLVVPFAKVVCKMSDQSSLVLEEYWATLQESTFSKLVQMFKTAVICQLDYWDESAEENGNVQALLEMLKKLHRVNQVKCQLPESIFQVDELLHRLNFFVEVCRRYLWKMTVDASENVQCCVIFSHFPFIFNNLSKIKLLHTDTLLKIESKKHKAYLRSAAIEEERESEFALRPTFDLTVRRNHLIEDVLNQLSQFENEDLRKELWVSFSGEIGYDLGGVKKEFFYCLFAEMIQPEYGMFMYPEGASCMWFPVKPKFEKKRYFFFGVLCGLSLFNCNVANLPFPLALFKKLLDQMPSLEDLKELSPDLGKNLQTLLDDEGDNFEEVFYIHFNVHWDRNDTNLIPNGSSITVNQTNKRDYVSKYINYIFNDSVKAVYEEFRRGFYKMCDEDIIKLFHPEELKDVIVGNTDYDWKTFEKNARYEPGYNSSHPTIVMFWKAFHKLTLEEKKKFLVFLTGTDRLQMKDLNNMKITFCCPESWNERDPIRALTCFSVLFLPKYSTMETVEEALQEAINNNRGFG	–	–	2.053	0.5274
ACSL3 (protein, UniProt O95573 1-720, looked up) Fatty acid CoA ligase Acsl3: MNNHVSSKPSTMKLKHTINPILLYFIHFLISLYTILTYIPFYFFSESRQEKSNRIKAKPVNSKPDSAYRSVNSLDGLASVLYPGCDTLDKVFTYAKNKFKNKRLLGTREVLNEEDEVQPNGKIFKKVILGQYNWLSYEDVFVRAFNFGNGLQMLGQKPKTNIAIFCETRAEWMIAAQACFMYNFQLVTLYATLGGPAIVHALNETEVTNIITSKELLQTKLKDIVSLVPRLRHIITVDGKPPTWSEFPKGIIVHTMAAVEALGAKASMENQPHSKPLPSDIAVIMYTSGSTGLPKGVMISHSNIIAGITGMAERIPELGEEDVYIGYLPLAHVLELSAELVCLSHGCRIGYSSPQTLADQSSKIKKGSKGDTSMLKPTLMAAVPEIMDRIYKNVMNKVSEMSSFQRNLFILAYNYKMEQISKGRNTPLCDSFVFRKVRSLLGGNIRLLLCGGAPLSATTQRFMNICFCCPVGQGYGLTESAGAGTISEVWDYNTGRVGAPLVCCEIKLKNWEEGGYFNTDKPHPRGEILIGGQSVTMGYYKNEAKTKADFFEDENGQRWLCTGDIGEFEPDGCLKIIDRKKDLVKLQAGEYVSLGKVEAALKNLPLVDNICAYANSYHSYVIGFVVPNQKELTELARKKGLKGTWEELCNSCEMENEVLKVLSEAAISASLEKFEIPVKIRLSPEPWTPETGLVTDAFKLKRKELKTHYQADIERMYGRK	0.2597	0.1591	–	–
PLEKHA7 (protein, UniProt Q6IQ23 1-1121, looked up) Pleckstrin homology …: MAAATVGRDTLPEHWSYGVCRDGRVFFINDQLRCTTWLHPRTGEPVNSGHMIRSDLPRGWEEGFTEEGASYFIDHNQQTTAFRHPVTGQFSPENSEFILQEEPNPHMSKQDRNQRPSSMVSETSTAGTASTLEAKPGPKIIKSSSKVHSFGKRDQAIRRNPNVPVVVRGWLHKQDSSGMRLWKRRWFVLADYCLFYYKDSREEAVLGSIPLPSYVISPVAPEDRISRKYSFKAVHTGMRALIYNSSTAGSQAEQSGMRTYYFSADTQEDMNAWVRAMNQAAQVLSRSSLKRDMEKVERQAVPQANHTESCHECGRVGPGHTRDCPHRGHDDIVNFERQEQEGEQYRSQRDPLEGKRDRSKARSPYSPAEEDALFMDLPTGPRGQQAQPQRAEKNGMLPASYGPGEQNGTGGYQRAFPPRTNPEKHSQRKSNLAQVEHWARAQKGDSRSLPLDQTLPRQGPGQSLSFPENYQTLPKSTRHPSGGSSPPPRNLPSDYKYAQDRASHLKMSSEERRAHRDGTVWQLYEWQQRQQFRHGSPTAPICLGSPEFTDQGRSRSMLEVPRSISVPPSPSDIPPPGPPRVFPPRRPHTPAERVTVKPPDQRRSVDISLGDSPRRARGHAVKNSSHVDRRSMPSMGYMTHTVSAPSLHGKSADDTYLQLKKDLEYLDLKMTGRDLLKDRSLKPVKIAESDTDVKLSIFCEQDRVLQDLEDKIRALKENKDQLESVLEVLHRQMEQYRDQPQHLEKIAYQQKLLQEDLVHIRAELSRESTEMENAWNEYLKLENDVEQLKQTLQEQHRRAFFFQEKSQIQKDLWRIEDVTAGLSANKENFRILVESVKNPERKTVPLFPHPPVPSLSTSESKPPPQPSPPTSPVRTPLEVRLFPQLQTYVPYRPHPPQLRKVTSPLQSPTKAKPKVEDEAPPRPPLPELYSPEDQPPAVPPLPREATIIRHTSVRGLKRQSDERKRDRELGQCVNGDSRVELRSYVSEPELATLSGDMAQPSLGLVGPESRYQTLPGRGLSGSTSRLQQSSTIAPYVTLRRGLNAESSKATFPRPKSALERLYSGDHQRGKMSAEEQLERMKRHQKALVRERKRTLGQGERTGLPSSRYLSRPLPGDLGSVC	0.2527	1.203	–	–

Reference: PMC7367873, “Dissecting the sequence determinants for dephosphorylation by the catalytic subunits of phosphatases PP1 and PP2A” (Nature Communications, 2020)
